Measured values taken from patent publication US20230071422A1 (BEIJING WISDOMAB BIOTECHNOLOGY, published 2023).
Substitutions are numbered along the chain they refer to. Values belong to the binder of their own block, whether it stands above or below them.

Columns and labels:
[1] = biological target: T1, extracellular region of human CD3E with C-terminal His tag (hCD3E-his) (human (Homo sapiens), UniProt P07766 23-126); assay: SPR, Biacore X100; antibody captured by anti-human IgG (Fc), hCD3E-his as analyte, 1:1 model
T1 construct: Recombinant, expressed in HEK293 cells
Experimental: (§1) The chip surface was regenerated by injecting 3M MgCl₂ solution at 10 μL/min for 30 s. Association rates (Kₒₙ) and dissociation rates (Koff) were calculated from association and dissociation sensorgrams fitted by a 1:1 binding model using Biacore X100 evaluation software version 2.0.1. The dissociation equilibrium constant (KD) was calculated as the ratio Koff/Kₒₙ.

[2] = biological target: T2, extracellular region of cynomolgus monkey CD3E with C-terminal His tag (mfCD3E-his) (cynomolgus monkey (Macaca fascicularis), UniProt Q95LI5 22-117); assay: SPR, Biacore X100; antibody captured by anti-human IgG (Fc), mfCD3E-his as analyte, 1:1 model
T2 construct: Recombinant, expressed in HEK293 cells
T2 sequence: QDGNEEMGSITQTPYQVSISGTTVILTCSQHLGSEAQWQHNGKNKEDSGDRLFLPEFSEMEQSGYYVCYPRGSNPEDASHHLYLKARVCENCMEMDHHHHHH
Experimental: as §1

[3] = biological target: T3, extracellular region of human CD123 subtype 1 with C-terminal His tag (hCD123-SP1-his) (human (Homo sapiens), UniProt P26951 19-305); assay: phage display, solid-phase screening on hCD123-SP1-His, three rounds
T3 construct: Recombinant, expressed in HEK293 cells
T3 sequence: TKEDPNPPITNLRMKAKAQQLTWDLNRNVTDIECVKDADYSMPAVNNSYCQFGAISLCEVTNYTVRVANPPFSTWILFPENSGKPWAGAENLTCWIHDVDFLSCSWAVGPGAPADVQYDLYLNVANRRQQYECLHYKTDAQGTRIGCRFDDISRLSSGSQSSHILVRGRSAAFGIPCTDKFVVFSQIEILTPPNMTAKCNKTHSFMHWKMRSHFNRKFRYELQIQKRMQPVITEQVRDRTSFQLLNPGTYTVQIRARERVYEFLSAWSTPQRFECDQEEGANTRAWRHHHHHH

[4] = biological target: T1, extracellular region of human CD3E with …; assay: SPR, Biacore X100; antibody captured by anti-human IgG (Fc) on CM5, hCD3E-his as analyte, 1:1 model, 25 C
Experimental: as §1

[5] = biological target: T3, extracellular region of human CD123 …; assay: SPR, Biacore X100; antibody captured by anti-human IgG (Fc) on CM5, hCD123-SP1-his as analyte, 1:1 model, 25 C
Experimental: (§2) The affinity of anti-CD123 antibodies was determined by surface plasmon resonance using Biacore X100. Related reagents and consumables such as Amino Conjugation Kit (BR-1000-50), Human Antibody Capture Kit (BR-1008-39), CM5 Chip (BR100012) and 10×HBS-EP (BR100669) buffer with pH 7.4 were all purchased from GE healthcare. According to the instructions in the kits, 1-Ethyl-3-(3-dimethylaminopropyl) carbodiimide hydrochloride (EDC) and N-Hydroxysuccinimide (NHS) was used to activate the surface of the carboxylated CM5 chip, and the anti-human IgG (Fc) antibody (capture antibody) was diluted to 25 μg/mL with 10 mM, pH5.0 sodium acetate, followed by an injection with a flow rate at 10 μL/min to achieve a coupling volume of approximately 10,000 response units (RU). Following the injection of the capture antibody, 1 M ethanolamine was injected to block unreacted groups. […] The chip surface was regenerated by injecting 3M MgCl₂ solution at 10 μL/min for 30 s. Association rates (Kₒₙ) and dissociation rates (Koff) were calculated from association and dissociation sensorgrams fitted by a 1:1 binding model using Biacore X100 evaluation software version 2.0.1. The dissociation equilibrium constant (KD) was calculated as the ratio Koff/Kₒₙ.

[6] = biological target: T4, CD123 on the surface of CD123-positive cells (KG-1a, MV-4-11) (human, UniProt P26951 19-378); assay: flow cytometry titration on MV-4-11 cells, goat anti-human IgG-FITC secondary antibody
T4 construct: whole, on cells; Endogenous CD123 on KG-1a (human acute myeloid leukemia) and MV-4-11 (human acute monocytic leukemia) cells; also called cell surface CD123 antigen; CD123 on the surface of MV-4-11 cells
Experimental: (§3) MV-4-11 cells at the logarithmic phase of growth were used and resuspended to 2×10⁶ cells/well with PBS buffer containing 1% BSA after centrifugation. MV-4-11 cells were plated in a 96-well V-bottom plate at 100 μL/well, and the supernatant was removed after centrifugation. […] The antibodies were added to the wells containing cells and incubated at 4° C. for 1 hour. Then, the plate was washed three times with 200 μL PBS buffer. The goat anti-human IgG-FITC secondary antibody (ZF-0308, ZSGB-BIO) was added to the wells (100 μL/well), and incubated at 4° C. for 30 minutes in the dark. Then, the cells were washed three times with 200 μL of PBS buffer, and resuspended in 100 μL of PBS buffer to detect FITC channel by flow cytometer (ACEA, Novocyte).

[7] = biological target: T3, extracellular region of human CD123 …; assay: SPR, Biacore X100; antibody captured by anti-human IgG (Fc), hCD123-SP1-his as analyte, 1:1 model
Experimental: as §2

[8] = biological target: T3, extracellular region of human CD123 …; assay: as above; remark: listed apart in the source
Experimental: as §2

[9] = biological target: T4, CD123 on the surface of CD123-positive …; assay: flow cytometry on MV-4-11 cells, titration from 100 nM, goat anti-human IgG-FITC; MV-4-11 cells, flow cytometry titration (apparent KD)
Experimental: as §3, with “MV-4-11” for “MV-4-11 cells at the logarithmic phase of growth were used and resuspended to 2×10⁶ cells/well with PBS buffer containing 1% BSA after centrifugation. MV-4-11”

T1 sequence (P07766 other isoform, or with tags, fused parts or gaps limits assumed): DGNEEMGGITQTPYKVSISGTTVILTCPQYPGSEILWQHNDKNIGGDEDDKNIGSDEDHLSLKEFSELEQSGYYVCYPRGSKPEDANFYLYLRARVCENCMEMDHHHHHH

B2: anti-human CD123 single chain fragment variable S8F3 (scFv)
scFv: QVQLQQSGAELAKPGASVKISCKASGYTFTSYDVSWVKQRPGQGLEWIGWVYPVDGSTKFNEKFKGKATLTADRSSSTAYMQLTSLTSEDSAVYFCARLRYGNYGDAMDDWGQGTSVTVSAGGGGSGGGGSGGGGSDVVMTQTPVSLSVSLGDQVSISCRPSQSLVHNNGNTYLSWYLQKPGQSPHPLIYKVSNRFSGISDRFSGSGSGTDFTLKISRVEPDDLGVYYCGQGTQYPFTFGSGTKLEIK
- binding result [3]: binds

B4: S8F3VH+C6VK (antibody, V domains shown)
VH: QVQLQQSGAELAKPGASVKISCKASGYTFTSYDVSWVKQRPGQGLEWIGWVYPVDGSTKFNEKFKGKATLTADRSSSTAYMQLTSLTSEDSAVYFCARLRYGNYGDAMDDWGQGTSVTVSA
VL: DVVMTQTPVSLSVSLGDQVSISCRPSQSLVHNNGNTYLSWYLQKPGQSPHPLIYKVSNRFSGISDRFSGSGSGTDFTLKISRVEPDDLGVYYCGQGTQYPFTFGSGTKLEIK
notes: Whole antibody: variable regions fused to a human heavy chain constant region and a light chain constant region; also called recombinant anti-CD123 monoclonal antibody
- Kd [5]: 8.03 nM
- koff [5]: 0.00365 s⁻¹
- kon [5]: 455000 M⁻¹ s⁻¹

B5: anti-CD123 monoclonal antibody H7A3-h2-m5+L27E5 (antibody, V domains shown)
VH: QVQLVQSGAEVKKPGASVKVSCKASGYTFTSYDVSWVRQAPGQRLEWMGWVYPVDGSTKFNEKFKGRVTLTADRSSSTAYMELSSLRSEDTAVYYCARLTYGDFGDAMDYWGQGTLVTVSS
VL: DIVMTQTPLSLSVTPGQPASISCKSSQSLVHSNDNTYLTWYLQKPGQSPQLLIYKVSNRFSGVPDRFSGSGSGTDFTLKISRVEAEDVGVYYCGQGTQYPFTFGQGTKLEIK
notes: Expressed as a whole antibody of human IgG1 with the common light chain L27E5; also called H7A3 humanized version H7A3-h2-m5
- EC50 (read off the curve) [6]: ~3 nM
- Kd [7]: 0.244 nM
- koff [7]: 7.67e-05 s⁻¹
- kon [7]: 314000 M⁻¹ s⁻¹
- Kd [8]: 0.22 nM
- koff [8]: 5.14e-05 s⁻¹
- kon [8]: 234000 M⁻¹ s⁻¹
- Kd [9]: 3.1 nM

B6: anti-CD3E monoclonal antibody H3B8+L27E5 (antibody, V domains shown)
VH: EVQLVESGGGLVQPGGSLRLSCAASGFTFSNAWMHWVRQAPGKGLEWVGQIKDKSNNYATYYADAVKGRFTISRDDSKNSLYLQMNSLKTEDTAVYYCRYVHYGVRFFYTMDVWGQGTTVTVSS
VL: B5 VL
notes: captured by an anti-human IgG (Fc) antibody in SPR; also called WM03-C6 humanized monoclonal antibody
- Kd [1]: 12.7 nM
- koff [1]: 0.000711 s⁻¹
- kon [1]: 56100 M⁻¹ s⁻¹
- Kd [2]: 5.26 nM
- koff [2]: 0.000649 s⁻¹
- kon [2]: 123000 M⁻¹ s⁻¹
- Kd [4]: 47.6 nM
- koff [4]: 0.000993 s⁻¹
- kon [4]: 20800 M⁻¹ s⁻¹

B7: S8F3VH+L27E5 (antibody, V domains shown)
VH: B4 VH
VL: B5 VL
notes: built from the label (S8F3VH heavy chain variable region with the L27E5 light chain)
- Kd [8]: 3.32 nM
- koff [8]: 0.000146 s⁻¹
- kon [8]: 43800 M⁻¹ s⁻¹

B8: H7A3+L27E5 (antibody, V domains shown)
VH: B4 VH with R100T, N103D, Y104F, D110Y
VL: B5 VL
notes: Whole antibody: H7A3 variable region fused to a human heavy chain constant region, combined with the L27E5 light chain; also called S8F3 heavy chain mutant H7A3
- Kd [7]: 0.226 nM
- koff [7]: 6.89e-05 s⁻¹
- kon [7]: 305000 M⁻¹ s⁻¹
- Kd [8]: 0.246 nM
- koff [8]: 6.64e-05 s⁻¹
- kon [8]: 270000 M⁻¹ s⁻¹

The remaining lines, values ahead:

- Kd [1]: 0.65 nM
- Kd [2]: 0.935 nM
B1: control bispecific antibody Xmab14045 (bispecific antibody)
heavy: QVQLQQSGAEVKKPGASVKVSCKASGYTFTDYYMKWVKQSHGKSLEWMGDIIPSNGATFYNQKFKGKATLTVDRSTSTAYMELSSLRSEDTAVYYCARSHLLRASWFAYWGQGTLVTVSSASTKGPSVFPLAPSSKSTSGGTAALGCLVKDYFPEPVTVSWNSGALTSGVHTFPAVLQSSGLYSLSSVVTVPSSSLGTQTYICNVNHKPSDTKVDKKVEPKSCDKTHTCPPCPAPPVAGPSVFLFPPKPKDTLMISRTPEVTCVVVDVKHEDPEVKFNWYVDGVEVHNAKTKPREEEYNSTYRVVSVLTVLHQDWLNGKEYKCKVSNKALPAPIEKTISKAKGQPREPQVYTLPPSREEMTKNQVSLTCDVSGFYPSDIAVEWESDGQPENNYKTTPPVLDSDGSFFLYSKLTVDKSRWEQGDVFSCSVMHEALHNHYTQKSLSLSPGK
scFv: not shown
light: not shown

- Kd [4]: 10.6 nM
- koff [4]: 0.000288 s⁻¹
- kon [4]: 27200 M⁻¹ s⁻¹
B3: monoclonal antibody WM03-C6 (antibody, V domains shown)
VH: EVQLVETGENLVQPGKSLRLTCATSGFSFSNAWMHWIRQSPEKQLEWVAQIKDKSNNYATYYAESVNGRFTISRDDSKSSIYLHMDNLKEEDSAIYYCRYVHYGVRFFYTMDVWGQGTSVTVSS
VL: B4 VL
notes: also called rat monoclonal antibody WM03-C6; 20E5-F10 of WO 2016/116626 A1
